T1: UDP-MurNAc-L-Ala-D-iGlu-L-Lys-D-Ala (not fully specified)
T1 chain: AEKA

T2: GlcNAc-MurNAc-L-Ala-D-iGlu-L-(N-epsilon-D-iAsn)Lys-D-Ala (not fully specified)
T2 chain: AEKA

T3: L-Ala-D-iGlu-L-Lys-D-Ala (not fully specified)
T3 chain: AEKA

T4: GlcNAc-MurNAc-L-Ala-D-iGln-L-Lys-D-Ala
T4 chain: AQKA

T5: GlcNAc-MurNAc-L-Ala-D-iGln-L-(N-epsilon-D-iAsn)Lys-D-Ala
T5 chain: AQKA

T6: N-alpha,N-epsilon-diacetyl-L-lysyl-D-alanine
T6 chain: KA


Key:
[1] = biological target: T1, UDP-MurNAc-L-Ala-D-iGlu-L-Lys-D-Ala
[2] = biological target: T2, GlcNAc-MurNAc-L-Ala-D-iGlu-L-(N-epsilon- …)
[3] = biological target: UDP-MurNAc-L-Ala-D-iGlu-L-Lys-D-Ala-D-Ala
L-Ala-D-iGlu-L-Lys-D-Ala = biological target: T3, L-Ala-D-iGlu-L-Lys-D-Ala
[4] = biological target: GlcNAc-MurNAc-L-Ala-D-iGlu-L-(N-epsilon-D-iAsn)Lys-D-Ala-D-Ala
[5] = biological target: T4, GlcNAc-MurNAc-L-Ala-D-iGln-L-Lys-D-Ala
[6] = biological target: T5, GlcNAc-MurNAc-L-Ala-D-iGln-L-(N-epsilon- …)
[7] = biological target: L-Ala-D-iGlu-L-Lys-D-Ala-D-Ala
[8] = biological target: T6, N-alpha,N-epsilon-diacetyl-L-lysyl-D-ala …

| Protein | formation of radioactive peptides in the exchange assay with D-[14C]Ala as the acceptor [1] | formation of radioactive peptides in the exchange assay with D-[14C]Ala as the acceptor [2] | formation of radioactive peptides in the exchange assay with D-[14C]Ala as the acceptor [3] | formation of radioactive peptides in the exchange assay with D-[14C]Ala as the acceptor (L-Ala-D-iGlu-L-Lys-D-Ala) | formation of radioactive peptides in the exchange assay with D-[14C]Ala as the acceptor [4] | formation of dimers, by mass spectrometry (in vitro L,D-transpeptidation) [5] | formation of dimers, by mass spectrometry (in vitro L,D-transpeptidation) [6] | formation of radioactive peptides in the exchange assay with D-[14C]Ala as the acceptor [7] | formation of radioactive peptides in the exchange assay with D-[14C]Ala as the acceptor [8] | formation of [14C]UDP-MurNac-hexapeptide in the D-aspartate ligase assay [3] |
| --- | --- | --- | --- | --- | --- | --- | --- | --- | --- | --- |
| L,D-transpeptidase of Enterococcus faecium M512 (Ldtfm), soluble recombinant fragment, residues 119 to 466, with C-terminal polyhistidine tag (protein) MAEKQEIDPVSQNHQKLDTTVQTLTTKLTDLNKDRTPTTDATIEKAGDSFVIKPEVNGNTIDVDAAVKQLKSAVNSGKDTIELTEFKEKPKVTSEDSSLKEQLASMNAIANVKATYSINGETFQIPSSDIMSWLTYNDGKVDLDTEQVRQYVTDLGTKYNTSTNDTKFKSTKRGEVTVPVGTYSWTIQTDSETEALKKAILAGQDFTRSPIVQGGTTADHPLIEDTYIEVDLENQHMWYYKDGKVALETDIVSGKPTTPTPAGVFYVWNKEEDATLKGTNDDGTPYESPVNYWMPIDWTGVGIHDSDWQPEYGGDLWKTRGSHGCINTPPSVMKELFGMVEKGTPVLVFGSHHHHHH | Formation of radioactive peptides was observed ... with other donors containing a tetrapeptide ending in D-Ala | Formation of radioactive peptides was observed ... also with the complete disaccharide-tetrapeptide(iAsn) peptidoglycan unit | Formation of radioactive peptides was not detected | Formation of radioactive peptides was observed ... with other donors containing a tetrapeptide ending in D-Ala | Formation of radioactive peptides was not detected | formation of dimers with two types of donors (tetrapeptide and tetrapeptide-iAsn) ...; The muropeptide containing an unsubstituted tetrapeptide stem was not used as an acceptor | formation of dimers with two types of donors (tetrapeptide and tetrapeptide-iAsn) and two types of acceptors (tetrapeptide-iAsn and tripeptide-iAsn) in the four possible combinations | Formation of radioactive peptides was not detected | Formation of radioactive peptides was observed not only with Ac2-L-Lys-D-Ala | – |
| D-aspartate ligase of Enterococcus faecium (Aslfm) (protein) MMNSIENEEFIPILLGSDMNVYGMARSFNEAYGKICQAYASDQLAPTRYSKIVNVEVIPGFDKDPVFIETMLRLAKERYSDKSKKYLLIACGDGYAELISQHKQELSEYFICPYIDYSLFERLINKVSFYEVCEEYDLPYPKTLIVREEMLVNGHLEQELPFEFPVALKPANSVEYLSVQFEGRKKAFILETREEFDLILGRIYEAGYKSEMIVQDFIPGDDSNMRVLNAYVDEDHQVRMMCLGHPLLEDPTPASIGNYVVIMPDYNEKIYQTIKAFLEKIEYTGFANFDMKYDPRDGEYKLFEINLRQGRSSFFVTLNGLNLARFVTEDRVFNKPFVETTYGTNQSDKARLWMGVPKKIFLEYARENEDKKLAEQMIKENRYGTTVFYEKDRSIKRWLLMKYMFHNYIPRFKKYFHVKEG | – | – | – | – | – | – | – | – | – | Addition of 2 µg of purified protein in the D-aspartate ligase assay resulted in the formation of a radioactive product corresponding to the labeled hexapeptide |
